Laboratory results: patent US20150105316A1 (TREVENA, published 2015)
Where no end group is shown, it is not given here. [ ]: non-standard residue; d: D form. Tle = CC(C)(C)[C@H](N)C(=O)O; Ac6c = NC1(C(=O)O)CCCCC1; cyPen = not defined here; Sar = CNCC(=O)O

What was measured:
Assay in all cases: cell-based or functional assay
[1] = target: T1, human angiotensin 2 type 1 receptor (human, UniProt P30556 1-359)
T1 sequence (looked up): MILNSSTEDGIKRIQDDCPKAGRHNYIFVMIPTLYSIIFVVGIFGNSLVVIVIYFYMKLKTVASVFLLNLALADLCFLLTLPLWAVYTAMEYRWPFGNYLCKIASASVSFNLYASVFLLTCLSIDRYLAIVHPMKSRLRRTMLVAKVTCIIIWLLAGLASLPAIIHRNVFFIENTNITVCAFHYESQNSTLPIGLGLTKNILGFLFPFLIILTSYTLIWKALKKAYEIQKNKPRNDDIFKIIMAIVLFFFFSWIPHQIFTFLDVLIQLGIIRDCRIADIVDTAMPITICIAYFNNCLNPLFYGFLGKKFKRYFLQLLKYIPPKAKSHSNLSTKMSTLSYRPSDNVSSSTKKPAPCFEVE

[2] = target: T2, rat angiotensin 2 type 1 receptor (rat, UniProt P25095 1-359)
T2 sequence (looked up): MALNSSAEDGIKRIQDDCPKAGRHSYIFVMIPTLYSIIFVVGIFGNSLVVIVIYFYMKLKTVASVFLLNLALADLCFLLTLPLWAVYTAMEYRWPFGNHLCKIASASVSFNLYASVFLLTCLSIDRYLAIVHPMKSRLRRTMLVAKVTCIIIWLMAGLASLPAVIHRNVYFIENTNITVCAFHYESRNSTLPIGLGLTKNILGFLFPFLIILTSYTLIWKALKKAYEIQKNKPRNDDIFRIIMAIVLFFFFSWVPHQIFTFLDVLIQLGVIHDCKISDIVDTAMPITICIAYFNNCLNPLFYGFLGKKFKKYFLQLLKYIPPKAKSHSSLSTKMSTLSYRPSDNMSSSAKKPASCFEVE

[3] = target: T1, human angiotensin 2 type 1 receptor; remark: listed apart in the source
[4] = target: T2, rat angiotensin 2 type 1 receptor; remark: listed apart in the source

| Binder | IP1 G-protein assay EC50 [1] | IP1 G-protein assay Span [1] | IP1 G-protein assay pEC50 [1] | IP1 G-protein assay EC50 [2] | IP1 G-protein assay Span [2] | IP1 G-protein assay pEC50 [2] | beta-arrestin2 assay EC50 [3] | beta-arrestin2 assay Span [3] | beta-arrestin2 assay pEC50 [3] | beta-arrestin2 assay EC50 [4] | beta-arrestin2 assay Span [4] | beta-arrestin2 assay pEC50 [4] |
| --- | --- | --- | --- | --- | --- | --- | --- | --- | --- | --- | --- | --- |
| [Sar]RVYPHPF [SEQ ID NO: 10 (Sar-Arg-Val-Tyr-Pro-His-Pro-Phe)] | 1.3 nM | < 103 | < 9.2 | > 0.6 nM | < 104 | < 9.2 | > 3.2 nM | < 101 | < 8.5 | 3.2 nM | > 105 | 8.5 |
| [Sar]RVYPHPL [SEQ ID NO: 5 (Sar-Arg-Val-Tyr-Pro-His-Pro-Leu)] | 3.2 nM | < 103 | < 9.2 | > 0.6 nM | < 104 | < 9.2 | > 3.2 nM | < 101 | < 8.5 | > 3.2 nM | < 105 | < 8.5 |
| [Sar]RVY[Ac6c]HPW [SEQ ID NO: 54 (Sar-Arg-Val-Tyr-cyHex-His-Pro-Trp)] | > 1.3 nM | < 103 | < 9.2 | > 0.6 nM | < 104 | < 9.2 | > 3.2 nM | < 101 | < 8.5 | > 3.2 nM | < 105 | < 8.5 |
| [Sar]RVY[Ac6c]HPY [SEQ ID NO: 55 (Sar-Arg-Val-Tyr-cyHex-His-Pro-Tyr)] | > 1.3 nM | < 103 | < 9.2 | > 0.6 nM | < 104 | < 9.2 | > 3.2 nM | < 101 | < 8.5 | > 3.2 nM | < 105 | < 8.5 |
| [Sar]RVY[Ac6c]HPI [SEQ ID NO: 11 (Sar-Arg-Val-Tyr-cyHex-His-Pro-Ile)] | > 1.3 nM | < 103 | < 9.2 | > 0.6 nM | – | > 9.2 | > 3.2 nM | < 101 | < 8.5 | > 3.2 nM | < 105 | < 8.5 |
| [Sar]RVYPHPS [SEQ ID NO: 8 (Sar-Arg-Val-Tyr-Pro-His-Pro-Ser)] | 6310 nM | < 103 | < 9.2 | > 0.6 nM | – | > 9.2 | > 3.2 nM | < 101 | < 8.5 | > 3.2 nM | < 105 | < 8.5 |
| [Sar]RVYPHPV [SEQ ID NO: 6 (Sar-Arg-Val-Tyr-Pro-His-Pro-Val)] | 63.1 nM | < 103 | < 9.2 | > 0.6 nM | < 104 | < 9.2 | > 3.2 nM | < 101 | < 8.5 | > 3.2 nM | < 105 | < 8.5 |
| [Sar]RVYPHP[dA] [SEQ ID NO: 60 (Sar-Arg-Val-Tyr-Pro-His-Pro-D-Ala)] | > 1.3 nM | < 103 | < 9.2 | > 0.6 nM | < 104 | < 9.2 | > 3.2 nM | < 101 | < 8.5 | > 3.2 nM | < 105 | < 8.5 |
| [Sar]RVY[Ac6c]HP[Tle] [SEQ ID NO: 56 (Sar-Arg-Val-Tyr-cyHex-His-Pro-AA02)] | > 1.3 nM | < 103 | < 9.2 | > 0.6 nM | < 104 | < 9.2 | > 3.2 nM | < 101 | < 8.5 | > 3.2 nM | < 105 | < 8.5 |
| [Sar]RVY[Ac6c]HPQ [SEQ ID NO: 38 (Sar-Arg-Val-Tyr-cyHex-His-Pro-Gln)] | > 1.3 nM | < 103 | < 9.2 | > 0.6 nM | < 104 | < 9.2 | > 3.2 nM | < 101 | < 8.5 | > 3.2 nM | < 105 | < 8.5 |
| [Sar]RVYPHPT [SEQ ID NO: 7 (Sar-Arg-Val-Tyr-Pro-His-Pro-Thr)] | > 10000 nM | – | > 9.2 | > 0.6 nM | – | > 9.2 | > 3.2 nM | < 101 | < 8.5 | > 3.2 nM | < 105 | < 8.5 |
| [Sar]RVYPHPM [SEQ ID NO: 9 (Sar-Arg-Val-Tyr-Pro-His-Pro-Met)] | 5 nM | < 103 | < 9.2 | > 0.6 nM | < 104 | < 9.2 | > 3.2 nM | < 101 | < 8.5 | > 3.2 nM | < 105 | < 8.5 |
| [Sar]RVY[Ac6c]HPP [SEQ ID NO: 39 (Sar-Arg-Val-Tyr-cyHex-His-Pro-Pro)] | > 1.3 nM | < 103 | < 9.2 | > 0.6 nM | < 104 | < 9.2 | > 3.2 nM | < 101 | < 8.5 | > 3.2 nM | < 105 | < 8.5 |
| [Sar]RVYPHPI [SEQ ID NO: 4 (Sar-Arg-Val-Tyr-Pro-His-Pro-Ile)] | 2.5 nM | < 103 | < 9.2 | > 0.6 nM | – | > 9.2 | > 3.2 nM | < 101 | < 8.5 | > 3.2 nM | < 105 | < 8.5 |
| [Sar]RVY[cyPen]HPA (reading uncertain; also: printed as Sar-Arg-Val-Tyr-cyPen-His-Pro-Ala) [SEQ ID NO: 3 (Sar-Arg-Val-Tyr-cyPen-His-Pro-Ala)] | > 10000 nM | – | > 9.2 | > 0.6 nM | – | > 9.2 | – | < 101 | – | – | < 105 | – |
